Measurements reported in publication PMC4498696 (PLoS Pathogens, 2015).

Legend:
[1] = molecular target: T1, biotinylated prefusion RSV F DS-Cav1, subtype B (Human respiratory syncytial virus B, …, UniProt P13843, stabilised, biotin); assay: Luminex bead binding assay; details: both partners purified
T1 construct: also called prefusion RSV F derived from B subtype; source: biotinylated protein coupled to avidin-coated beads; copies: 3 + 3

[2] = molecular target: prefusion-stabilized RSV F ectodomain DS-Cav1 (strain A2), furin-cleaved trimer with foldon, tags removed (respiratory syncytial virus, strain A2 …, UniProt P03420); assay: cell-based or functional assay
[3] = molecular target: T2, biotinylated AviTagged prefusion RSV F DS-Cav1, subtype A (strain A2) (Human respiratory syncytial virus A, …, stabilised, biotin (by biotin ligase BirA, on the AviTag)); assay: Luminex bead binding assay; biotinylated RSV F proteins coupled to avidin-coated MagPlex beads (1 μg per 50,000 beads); IgG in 10-fold serial dilutions 1 μM to 0.1 pM; PE-conjugated anti-human IgG Fc; PBS, 0.1% BSA, 0.05% Tween 20; details: both partners purified
T2 construct: also called Biotinylated DS-Cav1; immobilized prefusion RSV F; source: FreeStyle 293-F, transfected, purified; biotinylated with BirA, Superdex 200; copies: 3 + 3

[4] = molecular target: full-length prefusion F (RSV F residues 1-574 with the DS-Cav1 stabilizing mutations) on the cell surface (Human respiratory syncytial virus A, …, UniProt P03420, stabilised); assay: flow cytometry on cells; Expi293 cells expressing RSV F 1-574 DS-Cav1 or its N426D variant; antibodies 1 μg/ml, 1 hour at 4°C; Alexa488 anti-human secondary; normalized to motavizumab binding; details: one partner purified
[5] = molecular target: T2, biotinylated AviTagged prefusion RSV F …; assay: SPR; biotinylated DS-Cav1 immobilised on an SA chip (292 RU), Biacore X100; AM14 Fab 5 nM to 19.5 pM in HBS-EP+; 1:1 binding model; details: both partners purified

B1: motavizumab IgG (antibody, V domains shown)
VH: QVTLRESGPALVKPTQTLTLTCTFSGFSLSTAGMSVGWIRQPPGKALEWLADIWWDDKKHYNPSLKDRLTISKDTSKNQVVLKVTNMDPADTATYYCARDMIFNFYFDVWGQGTTVTVSS
VL: DIQMTQSPSTLSASVGDRVTITCSASSRVGYMHWYQQKPGKAPKLLIYDTSKLASGVPSRFSGSGSGTEFTLTISSLQPDDFATYYCFQGSGYPFTFGGGTKVEIK
Question: Does B1 bind [1]?
Answer: Result: binds

B2: AM14 IgG (antibody, V domains shown)
VH: EVQLVESGGGVVQPGRSLRLSCAASGFSFSHYAMHWVRQAPGKGLEWVAVISYDGENTYYADSVKGRFSISRDNSKNTVSLQMNSLRPEDTALYYCARDRIVDDYYYYGMDVWGQGATVTVSS
VL: DIQMTQSPSSLSASVGDRVTITCQASQDIKKYLNWYHQKPGKVPELLMHDASNLETGVPSRFSGRGSGTDFTLTISSLQPEDIGTYYCQQYDNLPPLTFGGGTKVEIK
Question: For B2, which “IC50 of neutralisation of RSV strain A2 (F of the virus), microneutralization on HEp-2 cells” value [2] is on record?
Answer: Its value is 0.0124 µg/mL.

Question: What about the “IC50 of neutralisation of RSV strain A Long (F of the virus), microneutralization on HEp-2 cells” value [2] of the same binder?
Answer: Its value is 0.0136 µg/mL.

Question: And the EC50 [3]?
Answer: The EC50 was 0.63 nM.

Question: Does B2 bind [4]?
Answer: Result: binds

B3: AM14 Fab (Fab, V domains shown)
VH: B2 VH
VL: B2 VL
Question: B3 was tested. Which Kd [5] did it give?
Answer: The Kd was 0.18 nM.

Question: And the koff [5]?
Answer: The koff was 0.0034 s⁻¹.

Question: What about the kon [5] of the same binder?
Answer: Its kon is 1.87e+07 M⁻¹ s⁻¹.
